In patent US9958461B2, “Detection of protein to protein interactions” (THE GOVERNING COUNCIL OF THE UNIVERSITY OF TORONTO, priority 2013, dated 2018):
Each block holds one molecule with its values, some of them ahead of it.

Experiments:
EGFR-Wt [1] = molecular target: T1, EGFR-Wt (Homo sapiens, UniProt P00533); experiment: MaMTH EGFR-interactor screen, lentiviral preys against EGFR-wildtype bait (interaction score); assay type: cell-based; details: MaMTH interaction score of prey with EGFR-Wt bait, mean
T1 construct: with the advantage of testing full-length integral membrane proteins; (GGGGS)2 linker-Cub (human ubiquitin aa 35-76)-GAL4(1-147)-mNFkB(364-550) (C); expressed in transfected cells
Method in brief: (§1)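 5×GAL4UAS-luciferase HEK293T reporter cells were lentivirally infected with preys (MOI ~0.3-0.4) and puromycin-selected ≥48 h. They were then transfected in triplicate with the EGFR bait, and luciferase was read 24 h later. Score is fold-change over averaged negative-control preys; >1 denotes interaction.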

EGFR-Wt [2] = experiment: as above; assay type: cell-based, human; details: ratio of EGFR-Wt mean to EGFR-L858R mean interaction score
Method in brief: as §1

EGFR-L858R = molecular target: T2, EGFR-L858R (Homo sapiens, UniProt P00533, L858R); experiment: MaMTH EGFR-interactor screen, lentiviral preys against EGFR-L858R bait (interaction score); assay type: cell-based; details: MaMTH interaction score of prey with EGFR-L858R bait
T2 construct: with the advantage of testing full-length integral membrane proteins; (GGGGS)2 linker-Cub (human ubiquitin aa 35-76)-GAL4(1-147)-mNFkB(364-550) (C); expressed in transfected cells
Method in brief: as §1

EGFR-Wt mean (EGFR-Wt [1]): 1.52
EGFR-L858R mean (EGFR-L858R): 1.63
B1: MAPK8IP2 (protein, UniProt Q13387 1-824, looked up)
C-Jun-amino-terminal …: MADRAEMFSLSTFHSLSPPGCRPPQDISLEEFDDEDLSEITDDCGLGLSYDSDHCEKDSLSLGRSEQPHPICSFQDDFQEFEMIDDNEEEDDEDEEEEEEEEEGDGEGQEGGDPGSEAPAPGPLIPSPSVEEPHKHRPTTLRLTTLGAQDSLNNNGGFDLVRPASWQETALCSPAPEALRELPGPLPATDTGPGGAQSPVRPGCDCEGNRPAEPPAPGGTSPSSDPGIEADLRSRSSGGRGGRRSSQELSSPGSDSEDAGGARLGRMISSISETELELSSDGGSSSSGRSSHLTNSIEEASSPASEPEPPREPPRRPAFLPVGPDDTNSEYESGSESEPDLSEDADSPWLLSNLVSRMISEGSSPIRCPGQCLSPAPRPPGEPVSPAGGAAQDSQDPEAAAGPGGVELVDMETLCAPPPPAPAAPRPGPAQPGPCLFLSNPTRDTITPLWAAPGRAARPGRACSAACSEEEDEEDDEEEEDAEDSAGSPGGRGTGPSAPRDASLVYDAVKYTLVVDEHTQLELVSLRRCAGLGHDSEEDSGGEASEEEAGAALLGGGQVSGDTSPDSPDLTFSKKFLNVFVNSTSRSSSTESFGLFSCLVNGEEREQTHRAVFRFIPRHPDELELDVDDPVLVEAEEDDFWFRGFNMRTGERGVFPAFYAHAVPGPAKDLLGSKRSPCWVERFDVQFLGSVEVPCHQGNGILCAAMQKIATARKLTVHLRPPASCDLEISLRGVKLSLSGGGPEFQRCSHFFQMKNISFCGCHPRNSCYFGFITKHPLLSRFACHVFVSQESMRPVAQSVGRAFLEYYQEHLAYACPTEDIYLE
Wt/L858R (EGFR-Wt [2]): 0.93

EGFR-Wt mean (EGFR-Wt [1]): 1.27
EGFR-L858R mean (EGFR-L858R): 1.36
B2: PTPN2 (protein, UniProt P17706 1-415, looked up)
Tyrosine-protein phosphatase …: MPTTIEREFEELDTQRRWQPLYLEIRNESHDYPHRVAKFPENRNRNRYRDVSPYDHSRVKLQNAENDYINASLVDIEEAQRSYILTQGPLPNTCCHFWLMVWQQKTKAVVMLNRIVEKESVKCAQYWPTDDQEMLFKETGFSVKLLSEDVKSYYTVHLLQLENINSGETRTISHFHYTTWPDFGVPESPASFLNFLFKVRESGSLNPDHGPAVIHCSAGIGRSGTFSLVDTCLVLMEKGDDINIKQVLLNMRKYRMGLIQTPDQLRFSYMAIIEGAKCIKGDSSIQKRWKELSKEDLSPAFDHSPNKIMTEKYNGNRIGLEEEKLTGDRCTGLSSKMQDTMEENSESALRKRIREDRKATTAQKVQQMKQRLNENERKRKRWLYWQPILTKMGFMSVILVGAFVGWTLFFQQNAL
Wt/L858R (EGFR-Wt [2]): 0.93

EGFR-Wt mean (EGFR-Wt [1]): 1.22
EGFR-L858R mean (EGFR-L858R): 5.90
B3: SOCS6 (protein, UniProt O14544 1-535, looked up)
Suppressor of cytokine …: MKKISLKTLRKSFNLNKSKEETDFMVVQQPSLASDFGKDDSLFGSCYGKDMASCDINGEDEKGGKNRSKSESLMGTLKRRLSAKQKSKGKAGTPSGSSADEDTFSSSSAPIVFKDVRAQRPIRSTSLRSHHYSPAPWPLRPTNSEETCIKMEVRVKALVHSSSPSPALNGVRKDFHDLQSETTCQEQANSLKSSASHNGDLHLHLDEHVPVVIGLMPQDYIQYTVPLDEGMYPLEGSRSYCLDSSSPMEVSAVPPQVGGRAFPEDESQVDQDLVVAPEIFVDQSVNGLLIGTTGVMLQSPRAGHDDVPPLSPLLPPMQNNQIQRNFSGLTGTEAHVAESMRCHLNFDPNSAPGVARVYDSVQSSGPMVVTSLTEELKKLAKQGWYWGPITRWEAEGKLANVPDGSFLVRDSSDDRYLLSLSFRSHGKTLHTRIEHSNGRFSFYEQPDVEGHTSIVDLIEHSIRDSENGAFCYSRSRLPGSATYPVRLTNPVSRFMQVRSLQYLCRFVIRQYTRIDLIQKLPLPNKMKDYLQEKHY
Wt/L858R (EGFR-Wt [2]): 0.21
